Laboratory results reported in patent US20260116967A1 (CSPC MEGALITH BIOPHARMACEUTICAL, published 2026).

T1: human PVRIG on Jurkat-hPVRIG cells (human, UniProt Q6DKI7 41-326)
T1 construct: whole, on cells; also called PVRIG on cell surface; effector cells stably expressing PVRIG
T1 sequence (looked up): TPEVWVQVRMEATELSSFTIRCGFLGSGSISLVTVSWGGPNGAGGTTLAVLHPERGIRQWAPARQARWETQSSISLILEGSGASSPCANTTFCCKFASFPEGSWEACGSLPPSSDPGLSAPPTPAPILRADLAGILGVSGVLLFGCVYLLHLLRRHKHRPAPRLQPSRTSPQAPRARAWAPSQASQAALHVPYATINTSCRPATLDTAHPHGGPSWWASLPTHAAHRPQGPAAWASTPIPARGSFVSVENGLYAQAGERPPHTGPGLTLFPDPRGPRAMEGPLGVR

T2: cynomolgus monkey PVRIG on 293T-cynoPVRIG cells (cynomolgus monkey, UniProt A0A2K5WVV8 41-322)
T2 construct: whole, on cells; also called full-length monkey PVRIG
T2 sequence: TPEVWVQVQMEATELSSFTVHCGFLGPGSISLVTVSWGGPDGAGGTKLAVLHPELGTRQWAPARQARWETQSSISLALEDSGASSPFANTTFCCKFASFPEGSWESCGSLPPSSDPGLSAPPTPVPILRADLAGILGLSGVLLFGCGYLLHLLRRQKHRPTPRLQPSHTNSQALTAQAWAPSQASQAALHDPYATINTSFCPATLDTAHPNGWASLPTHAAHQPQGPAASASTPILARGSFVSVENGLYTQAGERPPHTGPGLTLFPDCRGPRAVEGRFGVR

T3: human PVRIG-His protein (human, UniProt Q6DKI7 41-171, limits assumed)
T3 construct: not shown: His tag
T3 sequence (looked up): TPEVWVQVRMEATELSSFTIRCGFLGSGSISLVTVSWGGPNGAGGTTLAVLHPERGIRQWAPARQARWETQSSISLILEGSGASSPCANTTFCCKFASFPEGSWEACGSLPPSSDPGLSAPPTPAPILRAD

T4: PVRIG-hFc protein (human, UniProt Q6DKI7 41-171, limits assumed)
T4 construct: also called human PVRIG protein; not shown: human Fc (hFc)
T4 sequence (looked up): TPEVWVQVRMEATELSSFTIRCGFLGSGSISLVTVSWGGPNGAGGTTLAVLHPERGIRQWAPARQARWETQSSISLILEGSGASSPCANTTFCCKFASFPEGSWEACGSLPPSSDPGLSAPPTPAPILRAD

T5: recombinant cynomolgus monkey (Cyno) PVRIG protein (cynomolgus monkey, UniProt A0A2K5WVV8 41-171)
T5 construct: also called soluble cynomolgus monkey PVRIG
T5 sequence: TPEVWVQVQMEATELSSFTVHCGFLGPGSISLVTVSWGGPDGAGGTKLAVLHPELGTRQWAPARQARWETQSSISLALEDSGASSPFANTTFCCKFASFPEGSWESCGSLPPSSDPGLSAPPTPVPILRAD

T6: recombinant human PVRIG protein (PVRIG extracellular full-length protein) (human, UniProt Q6DKI7 41-171)
T6 construct: also called recombinant PVRIG protein; soluble PVRIG
T6 sequence: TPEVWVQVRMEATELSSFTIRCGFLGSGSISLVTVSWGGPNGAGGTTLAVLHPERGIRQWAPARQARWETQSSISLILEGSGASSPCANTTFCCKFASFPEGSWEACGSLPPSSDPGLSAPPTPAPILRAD

B1: Hab21F10C10.12 (antibody, V domains shown)
VH: QVQLVQSGAEVKKPGASVKVSCKASGYTFINNFIEWVRQAPGQGLEWMGVINPGSGDANYAQKFQGRVTMTRDTSISTAYMELSRLRSDDTAVYYCASHWLAYWGQGTTVTVSS
VL: EIVMTQSPPTLSLSPGERVTLSCRSSQSLLSSGNQKNYLSWYQQKPGQAPRLLIYGASTRETGIPARFSGSGSGTDFTLTISSLQPEDFAVYYCQNGHFYPYTFGGGTKLEIK
notes: Humanized antibody; also called Hab21F10C10-VH.1d + Hab21F10C10-VL.1c
B2: 21F10C10-hIgG1 (antibody, V domains shown)
VH: QVQLQQSGAELVRPGTSVKVSCKASGYAFINNFIEWVKQRPGQGLEWIGVINPGSGDANYNEKFKGKATLTADKSSTTAYIQLSSLTSDDSAVYFCASHWLAYWGQGTLVTVSA
VL: DIVMTQSPSSLSVSAGEKVTMSCKSSQSLLSSGNQKNYLAWYQQKPGQPPKLLIYGASTRESGVPDRFTGSGSGTDFTLTISSVQAEDLAVYYCQNGHFYPYTFGGGTKLEIK
notes: also called 21F10C10 chimeric antibody
B3: SRF813-IgG1 (antibody, V domains shown)
VH: QVQLVQSGAEVKKPGSSVKVSCKASGGTFSSAAISWVRQAPGQGLEWMGNIIPIVGIANYAQKFQGRVTITADESTSTAYMELSSLRSEDTAVYYCARDTGRGYTRHFWFDPWGQGTLVTVSS
VL: DIQMTQSPSSLSASVGDRVTITCRASQSISSYLNWYQQKPGKAPKLLIYAASSLQSGVPSRFSGSGSGTDFTLTISSLQPEDFATYYCQQSDILYTFGGGTKVEIK
B4: 43F7C9-hIgG1 (antibody, V domains shown)
VH: DVQLQESGPGLVKPSQSLSLTCTVTGYSITSDYAWNWIRQFPGNRLEWMGYIRYNGNTNYNPSLKSRISITRDTSKNQFFLQLNSVTTEDTATYYCAIIYYDYDGFVYWGQGTLVTVSA
VL: DILLTQSPATLSVTPGETVSLSCRASQNVYENLHWYQQKSHRSPRLLIKFASDSISGIPSRFTGSGSGTDYTLSINSVKPEDEGIYYCLQLYSTPYTFGGGTELEIK
notes: also called 43H7C9-hIgG1; 43H7C9
B5: Hab1B10E8.6 (antibody, V domains shown)
VH: QVQLVQSGAEVKKPGASVKVSCKASGYSFPSYWMHWVRQAPGQGLEWIGEINPSNGLTNYNEQFRNRVTMTVDTSTSTVYMELSSLRSEDTAVYYCARHHGSTYYALDSWGQGTLVTVSS
VL: DIVMTQSPDSLAVSLGERATINCKSSQSLLNSINQKNFLAWYQQKPGQPPKLLVYFASTRESGVPDRFSGSGSGTDFTLTISSLQAEDVAVYFCQQHYSTPPTFGGGTKLEIK
notes: Humanized antibody; also called Hab1B10E8-VH.1b + Hab1B10E8-VL.1b
B6: Hab43F7C9.12 (antibody, V domains shown)
VH: QVQLQESGPGLVKPSETLSLTCTVSGYSISSDYAWNWIRQPPGKGLEWIGYIRYNGNTNYNPSLKSRVTISVDTSKNQFSLKLSSVTAADTAVYYCAIIYYDYDGFVYWGQGTTVTVSS
VL: DIQMTQSPSSLSASVGDRVTITCRASQNVYENLHWYQQKPGKAPKLLIKFASDSISGVPSRFSGSGSGTDFTLTISSLQPEDFATYYCLQLYSTPYTFGGGTKLEIK
notes: Humanized antibody; also called Hab43F7C9-VH.1d + Hab43F7C9-VL.1c; 43H7C9.12

How the values were obtained:
[1] = target: T1, human PVRIG on Jurkat-hPVRIG cells; assay: flow cytometry on Jurkat-hPVRIG cells
Description: The cells were inoculated at a density of 2×10⁶/ml in 96-well plate, 100 μl/well. 4-fold gradient dilutions of antibodies (0-66.7 nM) were added to incubate at 4° C. for 1 h. Goat anti-human secondary antibody was added, and the cells were labeled in the dark at 4° C. for 45 min. After the cells were collected and washed, the fluorescence intensity of the cells was read by flow cytometry. […] At the same time, the affinity of Hab43F7C9.12 in recognizing cell surface PVRIG is better than that of the control molecule SRF813.

[2] = target: T2, cynomolgus monkey PVRIG on …; assay: flow cytometry on 293T-cynoPVRIG cells
Description: The cells were seeded in a 96-well plate at a density of 2×10⁶, 100 μl/well, then washed three times with FACS buffer and the supernatant was discarded. Antibodies diluted with PBS buffer (0-2.5 nM) in a gradient were added to incubate at 4° C. for 1 h. The cells were washed three times with FACS buffer, and then labeled with Alexa Fluor 488-labeled goat anti-human IgG antibody at 4° C. in the dark for 45 min. The cells were washed three times with FACS buffer, and the fluorescence intensity of the cells was read by flow cytometry.

human PVRIG-His protein = target: T3, human PVRIG-His protein; assay: BLI (Fortebio), PVRIG-His on HIS1K biosensor, antibody as analyte
Description: The HIS1K biosensor was used, and human PVRIG-His protein was immobilized on the biosensor to a binding response threshold of 0.3 nm. After a 120 s baseline step, the sensor was immersed in an anti-PVRIG antibody diluted with 0.02% PBST buffer, with a starting antibody concentration of 25 nM, performing gradient dilution of 2-fold concentration with 7 gradients set. The binding and dissociation time of the immobilized substance and the analyte were 120 s and 300 s, respectively. The affinity data of antigen and antibody was calculated by regression analysis software based on the binding curve.

PVRIG-hFc protein [3] = target: T4, PVRIG-hFc protein; assay: blocking ELISA: antibody titrated against PVRIG-hFc binding to coated CD112-His
Description: The ELISA method was used to determine the ability of humanized PVRIG antibody to block the binding of human CD112 protein to human PVRIG protein. The CD112-His protein was diluted to a concentration of 1 μg/ml, and coated on the ELISA plate. A 3-fold gradient dilution of the antibody (0-133 nM) was mixed with the PVRIG-hFc protein and added to the coated ELISA plate to incubate at 37° C. for 1 hour. After washing the plate, the HRP-labeled goat anti-human Fc antibody was added to incubate at 37° C. for 1 hour. After washing the plate, the color developing solution was added, then adding the stop solution after 5 minutes and reading the results. The blocking results of the antibodies obtained are shown in FIG. 6 and Table 12 after GraphPad fitting. […] At the same time, Hab1B10E8.6, Hab21F10C10.12 and Hab43F7C9.12 have better ELISA blocking ability than the control molecule SRF813.

[4] = target: T5, recombinant cynomolgus monkey (Cyno) …; assay: ELISA, Cyno-PVRIG protein coated at 500 ng/ml
Description: The affinity of humanized antibody to recombinant cynomolgus monkey (Cyno) PVRIG protein was determined by ELISA. The Cyno-PVRIG protein was diluted to 500 ng/ml, and coated on the ELISA plate. After blocking, a 3-fold gradient dilution of the antibody (0-33.3 nM) was added. After incubation with goat anti-human secondary antibody for 1 hour, the plate was washed and the color was developed to read.

[5] = target: T6, recombinant human PVRIG protein (PVRIG …); assay: ELISA, human PVRIG protein coated at 500 ng/ml
Description: The affinity of humanized antibody to recombinant human PVRIG protein was determined by ELISA. The PVRIG protein was diluted to 500 ng/ml, and coated on the ELISA plate. After blocking, 3-fold gradient dilution of antibody (0-66.7 nM) was added, then performed color development and reading after incubation with goat anti-human secondary antibody.

PVRIG-hFc protein [6] = target: T4, PVRIG-hFc protein; assay: blocking flow cytometry: antibody titrated against PVRIG-hFc (1 ug/ml) binding to 293T-CD112 cells
Description: The cells were washed three times with FACS buffer, and then labeled with Alexa Fluor 488-labeled goat anti-human IgG antibody at 4° C. in the dark for 50 min. Then the cells were washed three times with FACS buffer, and the fluorescence intensity of the cells was read by flow cytometry.

[7] = target: T1, human PVRIG on Jurkat-hPVRIG cells; assay: cell-based or functional assay
[8] = target: T6, recombinant human PVRIG protein (PVRIG …); assay: ELISA, PVRIG extracellular protein coated at 500 ng/ml
Description: VH and VL were respectively constructed into a eukaryotic expression vector comprising hIgG1-kappa constant region. The obtained eukaryotic expression vector was transiently transfected into HEK-293 cells and cultured for 6 days. The culture supernatant was harvested and purified by Protein A to obtain target antibodies, which were named 21F10C10-hIgG1 and 43F7C9-hIgG1, respectively. The affinity of the antibodies to the recombinant PVRIG protein was determined by ELISA. The PVRIG extracellular full-length protein diluted to a concentration of 500 ng/ml was coated on the ELISA plate. The plate was washed 3 times with PBST buffer, and then 200 μl of PBS buffer containing 2% BSA was added, and the plate was blocked at 37° C. for 2 h. After the blocking was completed, the plate was washed 3 times with PBST buffer; 3-fold gradient dilutions of the test antibody (0-33.3 nM) were added, incubated at 37° C. for 2 h; then the plate was washed 3 times with PBST buffer. Horseradish peroxidase-labeled goat anti-human antibody was added, incubated at 37° C. for 1 h; then the plate was washed three times with PBST buffer. TMB single-component color developing solution was added for color development, reading the absorbance value after adding the stop solution.

Binder	EC50 [1] [nM]	EC50 [2] [nM]	Kd (human PVRIG-His protein) [nM]	koff (human PVRIG-His protein) [s⁻¹]	kon (human PVRIG-His protein) [M⁻¹ s⁻¹]	EC50 (PVRIG-hFc protein [3]) [nM]	EC50 [4] [nM]	EC50 [5] [nM]	EC50 (PVRIG-hFc protein [6]) [nM]	EC50 (nM) of reporter genes [7] [nM]	EC50 [8] [nM]
B1	0.0553	0.267	< 0.001	< 1e-07	837000	0.226	0.364	0.165	2.52	0.164	
B2											0.122
B3	0.0497	0.15				0.431				0.963	
B4											0.29
B5	0.0501	0.124	< 0.001	< 1e-07	782000	0.285	0.141	0.0869	2.56	0.184	
B6	0.0178	0.108	< 0.001	< 1e-07	963000	0.258	0.0797	0.145	1.46	0.0651	
